For this assay, the target named is Fhl1, P97447-2.

Experimental findings from IntAct's records for PubMed 24290140 are described below.

Chain of Fhl1, P97447-2 (P97447 other isoform, or with tags, fused parts or gaps): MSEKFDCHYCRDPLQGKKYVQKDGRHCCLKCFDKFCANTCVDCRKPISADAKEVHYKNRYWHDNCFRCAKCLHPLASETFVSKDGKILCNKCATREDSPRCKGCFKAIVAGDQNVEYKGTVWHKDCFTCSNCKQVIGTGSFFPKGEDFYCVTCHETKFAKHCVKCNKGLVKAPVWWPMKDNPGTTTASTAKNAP
Chain of Recombining binding protein suppressor of hairless (Mus musculus), P31266 A284R (P31266 whole entry A284R): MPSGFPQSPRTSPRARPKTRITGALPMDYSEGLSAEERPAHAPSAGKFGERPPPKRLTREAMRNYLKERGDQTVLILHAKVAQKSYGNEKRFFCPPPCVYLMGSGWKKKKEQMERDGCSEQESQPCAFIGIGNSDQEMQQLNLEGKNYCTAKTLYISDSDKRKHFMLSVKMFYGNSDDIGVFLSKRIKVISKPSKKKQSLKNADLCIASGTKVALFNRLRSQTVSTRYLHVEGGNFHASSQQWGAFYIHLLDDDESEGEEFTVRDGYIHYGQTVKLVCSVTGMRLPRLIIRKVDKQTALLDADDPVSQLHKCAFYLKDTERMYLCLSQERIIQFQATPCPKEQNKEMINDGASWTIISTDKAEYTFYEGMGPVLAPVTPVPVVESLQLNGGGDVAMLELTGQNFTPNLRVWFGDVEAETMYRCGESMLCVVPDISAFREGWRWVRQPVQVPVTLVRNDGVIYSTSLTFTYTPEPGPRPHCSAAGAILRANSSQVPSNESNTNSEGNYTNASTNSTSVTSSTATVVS
Chain of Recombining binding protein suppressor of hairless (Mus musculus), P31266 F261R (P31266 whole entry F261R): as the sequence (P31266 whole entry A284R) above, with F261R, R284A counted along it

As for “Recombining binding protein suppressor of hairless (Mus musculus), P31266 A284R”, the “effect of a mutation on the interaction” value was “decreasing interaction strength”. For the substance “Recombining binding protein suppressor of hairless (Mus musculus), P31266 F261R”, the “effect of a mutation on the interaction” value was “decreasing interaction strength”.
